Results on six molecules are retold here after patent US20160145321A1 (CRUCELL HOLLAND B V, published 2016).

Sequences and labels used below:
T1: G protein of RSV A/Long (virus, ATCC Cat. No. VR-26) (Respiratory syncytial virus A/Long, UniProt P20895 1-298)
T1 sequence (looked up): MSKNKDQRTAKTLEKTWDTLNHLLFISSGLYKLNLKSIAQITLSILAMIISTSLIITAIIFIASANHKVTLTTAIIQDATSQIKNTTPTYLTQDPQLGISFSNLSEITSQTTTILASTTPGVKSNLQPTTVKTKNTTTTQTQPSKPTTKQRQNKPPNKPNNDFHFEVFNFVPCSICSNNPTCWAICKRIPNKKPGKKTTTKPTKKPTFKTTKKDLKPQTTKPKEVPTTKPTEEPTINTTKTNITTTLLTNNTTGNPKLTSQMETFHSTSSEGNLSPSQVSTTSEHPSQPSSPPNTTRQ

T2: G protein of RSV B/18537 (virus, ATCC Cat. No. VR-1580) (Respiratory syncytial virus B/18537, UniProt P20896 1-292)
T2 sequence: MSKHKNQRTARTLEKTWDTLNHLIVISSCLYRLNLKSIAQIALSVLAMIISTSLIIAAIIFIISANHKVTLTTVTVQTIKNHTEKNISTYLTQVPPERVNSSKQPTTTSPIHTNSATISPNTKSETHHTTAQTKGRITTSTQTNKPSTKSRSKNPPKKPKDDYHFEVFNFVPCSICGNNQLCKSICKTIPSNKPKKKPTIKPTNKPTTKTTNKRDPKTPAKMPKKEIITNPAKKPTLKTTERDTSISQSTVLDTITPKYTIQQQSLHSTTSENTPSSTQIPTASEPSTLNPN

T3: G protein of RSV A/A2 (virus, ATCC Cat. No. VR-1540) (Respiratory syncytial virus A/A2, UniProt P03423 1-298)
T3 sequence: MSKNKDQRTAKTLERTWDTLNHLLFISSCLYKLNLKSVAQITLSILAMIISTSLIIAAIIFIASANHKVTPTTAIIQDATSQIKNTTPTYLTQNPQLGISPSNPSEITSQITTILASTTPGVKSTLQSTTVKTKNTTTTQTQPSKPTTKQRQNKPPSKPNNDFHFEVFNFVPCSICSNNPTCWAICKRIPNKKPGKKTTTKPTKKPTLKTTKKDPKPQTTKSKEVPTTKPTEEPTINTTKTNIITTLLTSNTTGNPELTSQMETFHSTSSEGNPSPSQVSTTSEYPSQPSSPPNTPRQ

T4: Recombinant RSV attachment protein (G protein) corresponding to RSV B/B1 (Respiratory syncytial virus B/B1, UniProt O36633 65-299)
T4 sequence: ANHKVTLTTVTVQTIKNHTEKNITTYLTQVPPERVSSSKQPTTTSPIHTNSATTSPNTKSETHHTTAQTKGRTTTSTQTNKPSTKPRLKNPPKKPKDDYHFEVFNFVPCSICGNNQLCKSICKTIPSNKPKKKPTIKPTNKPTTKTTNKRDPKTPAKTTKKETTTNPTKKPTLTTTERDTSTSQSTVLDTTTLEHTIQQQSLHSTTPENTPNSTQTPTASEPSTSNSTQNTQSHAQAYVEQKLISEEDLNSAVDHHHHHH

T5: Recombinant RSV attachment protein (G protein) corresponding to RSV A/Long (Respiratory syncytial virus A/Long, UniProt P20895 65-298)
T5 construct: also called RSV Ga; Ga
T5 sequence: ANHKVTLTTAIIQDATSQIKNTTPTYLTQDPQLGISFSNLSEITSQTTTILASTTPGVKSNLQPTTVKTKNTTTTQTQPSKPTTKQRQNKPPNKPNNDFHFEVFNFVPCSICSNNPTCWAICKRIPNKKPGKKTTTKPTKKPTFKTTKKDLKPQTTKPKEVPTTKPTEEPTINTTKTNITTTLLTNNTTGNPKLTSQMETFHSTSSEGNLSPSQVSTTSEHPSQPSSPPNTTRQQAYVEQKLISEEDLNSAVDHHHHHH

B1: CB003.1 (antibody, V domains shown)
VH: QVQLVQSGPELRKPGASVTVSCKASGYTFTTYYIHWVRQAPGGGLDWMGMINTGSGVTSYAQKFQGRVAMTRDTSTSTVFMELSSLRFEDTALYYCARMYSGSWYPFDYWGQGALVTVSS
VL: EIVLTQSPGTLSLSPGERATLSCRASQNINGNYLAWYQQKPGLAPRLLIYEASSRATGIPDRFSGSGSGTDFTLTISSLEPEDFGVYYCQQYGTSPFFTFGPGTKVDIK
B2: CB010.7 (antibody, V domains shown)
VH: QVQLVESGGGVVQPGRSLRLSCAASGFTFNTHGMHWVRQAPGKGLEWVAVMSYDGTKKYHADSVKGRFTISRDNSKNTLYLQMNSLRVEDTAIYYCAKVGELRSFDWLLADGTAYYYYGMDVWGQGTTVTVSS
VL: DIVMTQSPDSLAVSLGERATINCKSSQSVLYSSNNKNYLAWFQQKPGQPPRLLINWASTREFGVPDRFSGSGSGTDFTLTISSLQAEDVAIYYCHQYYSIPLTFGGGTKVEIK
B3: CB028.2 (antibody, V domains shown)
VH: QVQLVQSGAEVKKPGASVKVSCKASGYTFTTYGITWVRQAPGQGLEWMGWISGDSDNTNYAQNLQGRVTLTTDISTRTAYMELRSLKPDDTAMYYCARALAKWYCSSSSCFCGGGSCYSDYWGQGTLVTVSS
VL: DIQMTQSPSSLSASVGDRVTITCRASQGMSNYLNWYQQKPGKAPELLIYAASTLQSGVPSRFSGSGSGTDFTLTINSLQPEDFATYFCQQSFSTPLTFGGGTKVEIK
B4: CB058.1 (antibody, V domains shown)
VH: EVQLVESGGGLVQPGGSLRLSCVASGFTFSSYAMSWVRQAPGKGLEWVSAIRGSVDNTYYADSVKGRFTISRDNSKNTLYLQMNSLRVEDTAVYYCAKDPALYCSGETCFSDLTDWGQGTLVTVSS
VL: DIQMTQSPSSLSASVGDRVTITCRASQGINNYLAWFQQKPGKAPKSLIYAASTLPSGVPSRFSGSGSGTDFTLTISSLQPEDSATYFCQHYIRYPHTFGQGTKLEIK
B5: CB048.3 (antibody, V domains shown)
VH: QVQLVESGGGVVQPGRSLRLSCAASGFTFSNHGMHWVRQAPGKGLEWVAVISYDGNKKYYADSVKGRFTVSRDNSKNTLSLQMDSLRAEDTAIYYCAKTTFYFDDSNYYEYLDYWGQGTLVTVSS
VL: DIQLTQSPSFLSASVGDRVTITCRASQGIRSYLAWYQQKPGKAPKLLIYAASTLQSGVPSRFSGGGSGTEFTLTISSLQPEDSATYYCQQLNTSPPYTFGQGTKLEIK
B6: CB002.1 (antibody, V domains shown)
VH: QVQLQESGPRLVKPSETLSLTCTVSGGSTSSYFWNWIRQPPGKGLEWIGYIYGSGSADYNPSLKSRVTISIDTSKTQFSLKLTSVTAADTAVYYCARSGFCTNDACYRRGSWFDPWGQGTLVTVSS
VL: DIQMTQSPSSLSASVGDRVTITCRASQSIDNYLNWYQQKPGKAPKLLIYAASSLQSGVPSRFSGSGSGTDFTLTVSSLHPEDFATYYCQQSYSTLTWTFGQGTKVEIK
notes: also called CB2.1

The target of the first experiment is T1, G protein of RSV A/Long (virus, ATCC …). Nature of the experiment: cell-based or functional assay.
Regarding B1, the “Neutralization IC50 (plaque reduction assay, Vero cells)” value stood at 0.016 µg/mL.

With B2, the “Neutralization IC50 (plaque reduction assay, Vero cells)” value was determined as 0.012 µg/mL.

Another experiment deals with T2, G protein of RSV B/18537 (virus, ATCC …). The experiment can be described thus: cell-based or functional assay.
As for B1, the “Neutralization IC50 (plaque reduction assay, Vero cells)” value turned out to be 0.0246 µg/mL.

Turning to B2, the “Neutralization IC50 (plaque reduction assay, Vero cells)” value came out at 0.0141 µg/mL.

Turning to B3, the “Neutralization IC50 (plaque reduction assay, Vero cells)” value was found to be 0.0196 µg/mL.

A further experiment has as its target T3, G protein of RSV A/A2 (virus, ATCC Cat. …). Nature of the experiment: cell-based or functional assay.
For B4, the “Neutralization IC50 (plaque reduction assay, Vero cells)” value turned out to be 0.0144 µg/mL.

As to B5, the “Neutralization IC50 (plaque reduction assay, Vero cells)” value was determined as 0.0167 µg/mL.

Regarding B1, the “Neutralization IC50 (plaque reduction assay, Vero cells)” value turned out to be 0.0315 µg/mL.

Consider B2, for which the “Neutralization IC50 (plaque reduction assay, Vero cells)” value came out at 0.0165 µg/mL.

As for B6, the “Neutralization IC50 (plaque reduction assay, Vero cells)” value is 0.0355 µg/mL.

The target in the next experiment is T4, Recombinant RSV attachment protein (G …). Nature of the experiment: ELISA, coated recombinant protein (Example 6). For orientation: In an ELISA, binding on a coated surface is turned into a signal by an enzyme label.
Regarding B4, the binding result is “binds”.

Regarding B5, the binding result is “binds”.

With B2, the binding result is “binds”.

B3: the binding result is listed as “binds”.

For the molecule B6, the binding result is “binds”.

The target in the next experiment is T5, Recombinant RSV attachment protein (G …). Nature of the experiment: ELISA, coated recombinant protein (Example 6).
For the molecule B4, the binding result was “binds”.

As for B5, the binding result is recorded as “binds”.

For the molecule B3, the binding result is on record as “binds”.

For the molecule B6, the binding result was “binds”.
